Columns and labels:
[1] = test system: cultured dermal fibroblasts; experiment: UVB protection, follow-up MTT assay (pretreatment protocols); type: cell-based, human; conditions: UVB control 79 ± 19
Procedure: (§1) Two sets of duplicate cells were prepared using the four treatment protocols outlined in Table 24. One set of cells was used for an MTT assay while the other set of cells was used to measure the formation of ROS using the fluorescent DCF dye indicator.
(§2) For this follow up study, the material was tested at concentrations of 0.14% and 0.014%. During the pretreatment phase, the test material was diluted in FGM (for treatments 1 and 2). […] For the MTT assay, cells that were not exposed to UVB or treated with test materials were used to represent 100% cell viability.

[2] = test system: reactive oxygen species (ROS); experiment: Fluorescent DCF dye assay after UVB; type: cell-based, human; conditions: No UVB 0.031, UVB 0.057
Procedure: Therefore, the aim of the follow-up study, was to determine if treatment with the test material before or during UVB exposure provided any additional survival benefit(s). Four different treatment regiments were employed using different combinations of pretreatment with the test material prior to UVB exposure and treatment with the material during UVB exposure. Cell survival was again assessed via an MTT assay 48 hours after the UVB insult. In addition, this second study also incorporated the use of 2′,7′-dichloro-dihydrofluorescein diacetate (DCF), which is a relatively non-fluorescent dye that can be loaded into cells and becomes fluorescent upon exposure to the reactive oxygen species (ROS) generated during UVB exposure (Carini et al., Il Farmaco 55:526-534 [2000]; and Chan et al., J. Cell. Biochem., 90:327-338 [2003]). The diacetate form of the dye can freely traverse cell membranes, however once inside of the cell intracellular esterases will cleave off the acetate side groups trapping the DCF dye within the cell.
as §1, §2
One hour prior to UVB exposure, the cell culture media were removed and the wells were washed with PBS to remove any residual RSPP test material in the set of cells used for the DCF assay. A 20 mM stock of DCF prepared in DMSO was diluted to 10 μM using PBS and 100 μl of this solution were added to each well. The plate was then returned to the incubator for 1 hour, to allow sufficient time for the cells to take up and trap the dye. After the 1-hour incubation, the cells were washed with PBS to remove any unincorporated dye and then exposed to UVB using the protocol described above. Forty-eight hours later, the 96-well plate was read using a fluorometer set for an excitation wavelength of 485 nm and an emission wavelength of 518 nm. The duplicate set of wells run for the MTT assay served as non-dye loaded blanks to account for any background fluorescence due to the cells or the test material.
The mean fluorescence intensity was determined for each of the treatment groups (measured in relative fluorescence units or “RFU”).

[3] = test system: Fibroblasts (HDFn Cell Line); experiment: MTT assay (second cell viability assay); conditions: 48 hours
Source text: The purple crystals are extracted from the cells with isopropanol and the amount of crystal formation quantified spectrophotometrically. The intensity of the purple color is directly proportional to the metabolic activity of the cultured cells, which normally is used as an indication of an increase in the number of viable cells, although it can also indicate an increase in the mitochondrial content of the existing cells (Alley et al., Cancer Res., 48:589-601 1988). A decrease in color intensity can be a sign of toxicity.
Fibroblasts (Cascade Biologics, HDFn Cell Line, lot#1C0914) were seeded into the individual wells of either a 96-well plate (for the initial pilot work to determine concentration effects on cell viability) in 100 μl of Fibroblast Growth Media (FGM) or in 12-well plates (for the measurement of collagen, elastin and MMP-1) in 1.0 ml of FGM and incubated overnight at 37±2° C. and 5±1% CO2. On the following day, the medium was removed via aspiration to eliminate any non-adherent cells and replaced with fresh FGM. The cells were grown until confluent, with a media change every 48 to 72 hours. Upon reaching confluency, the cells were treated for 24 hours with Dulbecco's Modified Essential Media (DMEM) supplemented with 1.5% FBS to wash out any effects from the growth factors included in the normal FGM. After this 24-hour wash out period, the cells were treated with the test materials at the specified concentrations dissolved in DMEM with 1.5% FBS. […]
After the 2-day incubation, the cell culture medium was removed and the fibroblasts were washed twice with PBS to remove any remaining test material. […] The 96-well plates were read at 540 nm using isopropyl alcohol as a blank. The mean MTT absorbance value for the negative control cells was calculated and used to represent 100% value for cell viability. The individual MTT values from the cells undergoing the various treatments were then divided by the mean value for the negative control cells and expressed as a percent, to determine the change in cell viability caused by each treatment.

[4] = test system: Fibroblasts (HDFn Cell Line)
Procedure: Initial screening was conducted to identify a test range suitable to determine the effect of a broad range of test material concentrations on cell viability. […] Cultured fibroblasts were exposed to the test materials for 48 hours and then changes in cell viability were determined using an MTT assay (i.e., a colorimetric analysis of the metabolic activity of the cultured cells, described in greater detail below).
The purple crystals are extracted from the cells with isopropanol and the amount of crystal formation quantified spectrophotometrically. […] A decrease in color intensity can be a sign of toxicity.
Fibroblasts (Cascade Biologics, HDFn Cell Line, lot#1C0914) were seeded into the individual wells of either a 96-well plate (for the initial pilot work to determine concentration effects on cell viability) in 100 μl of Fibroblast Growth Media (FGM) or in 12-well plates (for the measurement of collagen, elastin and MMP-1) in 1.0 ml of FGM and incubated overnight at 37±2° C. and 5±1% CO2. On the following day, the medium was removed via aspiration to eliminate any non-adherent cells and replaced with fresh FGM. The cells were grown until confluent, with a media change every 48 to 72 hours. Upon reaching confluency, the cells were treated for 24 hours with Dulbecco's Modified Essential Media (DMEM) supplemented with 1.5% FBS to wash out any effects from the growth factors included in the normal FGM. After this 24-hour wash out period, the cells were treated with the test materials at the specified concentrations dissolved in DMEM with 1.5% FBS. Untreated cells (negative controls) received DMEM with 1.5% FBS. The cells were incubated for 48 hours and at the end of the incubation period cell culture medium was either discarded (pilot work) or collected and stored frozen at −75° C. The test materials were tested in triplicate.
After the 2-day incubation, the cell culture medium was removed and the fibroblasts were washed twice with PBS to remove any remaining test material. After the final wash, either 100 μl (96-well plates) or 300 μl (12-well plates) of DMEM supplemented with 0.5 mg/ml MTT were added to each well and the cells were incubated for 1 hour at 37±2° C. and 5±1% CO2. After the incubation, the DMEM/MTT solution was removed and the cells were washed again once with PBS and then either 100 μl (96-well plates) or 1 ml (12-well plates) of isopropyl alcohol were added to each well to extract the purple formazin crystals. For the 12-well plates, two hundred microliters of the isopropyl extracts was transferred to a 96-well plate. The 96-well plates were read at 540 nm using isopropyl alcohol as a blank. The mean MTT absorbance value for the negative control cells was calculated and used to represent 100% value for cell viability. The individual MTT values from the cells undergoing the various treatments were then divided by the mean value for the negative control cells and expressed as a percent, to determine the change in cell viability caused by each treatment.

[5] = Isoelectric point determination (IEF gel); type: physicochemical; conditions: stated in production example
Procedure: In this Example, experiments performed to determine the isoelectric point and cloud point of SELP47K (Example 1) are described. The isoelectric point of SELP47K was determined by electrophoresing 5 mg/ml SELP47K solution using Isoelectric Focusing Electrophoresis (IEF) gel and Novex electrophoresis apparatus along with protein standards markers.

[6] = T1 (24 hour pretreatment, absent during UVB, present 48 hours after) 0.014%
[7] = T1 (24 hour pretreatment, absent during UVB, present 48 hours after) 0.14%
[8] = T2 (24 hour pretreatment, present during UVB and 48 hours after) 0.014%
[9] = T2 (24 hour pretreatment, present during UVB and 48 hours after) 0.14%
[10] = T3 (present only 48 hours after UVB) 0.014%
[11] = T3 (present only 48 hours after UVB) 0.14%
[12] = T4 (no pretreatment, present during UVB and 48 hours after) 0.014%
[13] = T4 (no pretreatment, present during UVB and 48 hours after) 0.14%

B1: GC2596-26-D: SELP47K modified with two units of ALSYP (SEQ ID NO:36) peptides in each SELP47K unit; SEQ ID NO:32 (Example 4) (protein)
chain: MDPVVLQRRDWENPGVTQLNRLAAHPPFASDPMGAGAGSGAGAGSALSYPGVGVPGVGVPGVGVPGVGVPGKGVPGVGVPGVGVPGVGVPALSYPGAGAGSGAGAGSGAGAGSGAGAGSALSYPGVGVPGVGVPGVGVPGVGVPGKGVPGVGVPGVGVPGVGVPALSYPGAGAGSGAGAGSGAGAGSGAGAGSALSYPGVGVPGVGVPGVGVPGVGVPGKGVPGVGVPGVGVPGVGVPALSYPGAGAGSGAGAGSGAGAGSGAGAGSALSYPGVGVPGVGVPGVGVPGVGVPGKGVPGVGVPGVGVPGVGVPALSYPGAGAGSGAGAGSGAGAGSGAGAGSALSYPGVGVPGVGVPGVGVPGVGVPGKGVPGVGVPGVGVPGVGVPALSYPGAGAGSGAGAGSGAGAGSGAGAGSALSYPGVGVPGVGVPGVGVPGVGVPGKGVPGVGVPGVGVPGVGVPALSYPGAGAGSGAGAGSGAGAGSGAGAGSALSYPGVGVPGVGVPGVGVPGVGVPGKGVPGVGVPGVGVPGVGVPALSYPGAGAGSGAGAGSGAGAGSGAGAGSALSYPGVGVPGVGVPGVGVPGVGVPGKGVPGVGVPGVGVPGVGVPALSYPGAGAGSGAGAGSGAGAGSGAGAGSALSYPGVGVPGVGVPGVGVPGVGVPGKGVPGVGVPGVGVPGVGVPALSYPGAGAGSGAGAGSGAGAGSGAGAGSALSYPGVGVPGVGVPGVGVPGVGVPGKGVPGVGVPGVGVPGVGVPALSYPGAGAGSGAGAGSGAGAGSGAGAGSALSYPGVGVPGVGVPGVGVPGVGVPGKGVPGVGVPGVGVPGVGVPALSYPGAGAGSGAGAGSGAGAGSGAGAGSALSYPGVGVPGVGVPGVGVPGVGVPGKGVPGVGVPGVGVPGVGVPALSYPGAGAGSGAGAGSGAGAGSGAGAGSALSYPGVGVPGVGVPGVGVPGVGVPGKGVPGVGVPGVGVPGVGVPALSYPGAGAGSGAGAGSGAGAMDPGRYQDLRSHHHHHH
modifications: SELP 47K-P4
Percent Viability [1, 6]: 85 ± 7% | Percent Viability [1, 7]: 122 ± 20% | Percent Viability [1, 8]: 78 ± 4% | Percent Viability [1, 9]: 126 ± 25% | Percent Viability [1, 10]: 88% | Percent Viability [1, 11]: 97 ± 14% | Percent Viability ([1]; T3 (present only 48 hours after UVB) 0.14%, listed as 2596-26-D): ~100% | Percent Viability [1, 12]: 86 ± 6% | Percent Viability [1, 13]: 121 ± 19% | RFU/Viability [2, 6]: 0.038 | RFU/Viability [2, 7]: 0.038 | RFU/Viability [2, 8]: 0.035 | RFU/Viability [2, 9]: 0.032 | RFU/Viability [2, 10]: 0.053 | RFU/Viability [2, 11]: 0.039 | RFU/Viability [2, 12]: 0.052 | RFU/Viability [2, 13]: 0.026 | Percent Viability ([3]; 0.0014%): 100 ± 3% | Percent Viability ([3]; 0.007%): 103 ± 2% | Percent Viability ([3]; 0.014%): 106 ± 5%

B2: GC2596-26-E: collagen-like repeat sequence protein polymer, head-[(GAHGPAGPK)2(GAQGPAGPG)24(GAHGPAGPK)2]4-tail; SEQ ID NO:34 (Example 5) (protein)
chain: MDPVVLQRRDWENPGVTQLNRLAAHPPFASDPMGAHGPAGPKGAHGPAGPKGAQGPAGPGGAQGPAGPGGAQGPAGPGGAQGPAGPGGAQGPAGPGGAQGPAGPGGAQGPAGPGGAQGPAGPGGAQGPAGPGGAQGPAGPGGAQGPAGPGGAQGPAGPGGAQGPAGPGGAQGPAGPGGAQGPAGPGGAQGPAGPGGAQGPAGPGGAQGPAGPGGAQGPAGPGGAQGPAGPGGAQGPAGPGGAQGPAGPGGAQGPAGPGGAQGPAGPGGAHGPAGPKGAHGPAGPKGAHGPAGPKGAHGPAGPKGAQGPAGPGGAQGPAGPGGAQGPAGPGGAQGPAGPGGAQGPAGPGGAQGPAGPGGAQGPAGPGGAQGPAGPGGAQGPAGPGGAQGPAGPGGAQGPAGPGGAQGPAGPGGAQGPAGPGGAQGPAGPGGAQGPAGPGGAQGPAGPGGAQGPAGPGGAQGPAGPGGAQGPAGPGGAQGPAGPGGAQGPAGPGGAQGPAGPGGAQGPAGPGGAQGPAGPGGAHGPAGPKGAHGPAGPKGAHGPAGPKGAHGPAGPKGAQGPAGPGGAQGPAGPGGAQGPAGPGGAQGPAGPGGAQGPAGPGGAQGPAGPGGAQGPAGPGGAQGPAGPGGAQGPAGPGGAQGPAGPGGAQGPAGPGGAQGPAGPGGAQGPAGPGGAQGPAGPGGAQGPAGPGGAQGPAGPGGAQGPAGPGGAQGPAGPGGAQGPAGPGGAQGPAGPGGAQGPAGPGGAQGPAGPGGAQGPAGPGGAQGPAGPGGAHGPAGPKGAHGPAGPKGAHGPAGPKGAHGPAGPKGAQGPAGPGGAQGPAGPGGAQGPAGPGGAQGPAGPGGAQGPAGPGGAQGPAGPGGAQGPAGPGGAQGPAGPGGAQGPAGPGGAQGPAGPGGAQGPAGPGGAQGPAGPGGAQGPAGPGGAQGPAGPGGAQGPAGPGGAQGPAGPGGAQGPAGPGGAQGPAGPGGAQGPAGPGGAQGPAGPGGAQGPAGPGGAQGPAGPGGAQGPAGPGGAQGPAGPGGAHGPAGPKGAHGPAGPKMDPGRYQLSAGRYHYQLVWCQK
modifications: silk-elastin repeat sequence protein copolymer
concentrations with adverse effects on cell viability [4]: ≥ 0.07% | pI of the protein [5]: 11.18

From patent US20130059772A1, “Use of Repeat Sequence Protein Polymers in Personal Care Compositions” (DANISCO US INC., priority 2003, published 2013)
